This passage reports Km results from publication PMC9728169, “Enzymatic Biotransformation of Ginsenoside Rb2 into Rd by Recombinant α-L-Arabinopyranosidase from Blastococcus saxobsidens” (Journal of Microbiology and Biotechnology, 2019).

Substrate in the series: [H][C@@]1(O[C@@H]2[C@@H](O)[C@H](O)[C@@H](CO)O[C@@]2([H])O[C@H]2CC[C@]3(C)[C@@]4([H])C[C@@H](O)[C@]5([H])[C@@]([H])([C@](C)(CCC=C(C)C)O[C@@H]6O[C@H](CO[C@@H]7OC[C@H](O)[C@H](O)[C@H]7O)[C@@H](O)[C@H](O)[C@H]6O)CC[C@@]5(C)[C@]4(C)CC[C@@]3([H])C2(C)C)O[C@H](CO)[C@@H](O)[C@H](O)[C@H]1O
Kind of series: hydrolysis of arabinopyranose moiety of Rb2 (kinetic read-out not detailed). It counts as biochemical, Blastococcus saxobsidens. The note with it: enzyme 10 μg/ml; substrate range 0.1 mM to 5 mM as printed (unit μM doubtful); pH and temperature not stated for this constant; unit of the source corrected.

B1: AbpBs (α-L-arabinopyranosidase) (Blastococcus saxobsidens) (protein)
chain: MRRIPFNRGWETRAHANFFAEMHGAAAPWQPVTLPHDAALGRTRDAANGAGSGYVPGGVYEYRTTLAAPAEYRDRRVLLEFEGVYRTAMVYVNGSLAGSWATGYTGFVVDLDDHLRYGGDNEIRVVCRAHQDSRWYSGAGIHRPVHLVVGPLTHLALDGVRVTTTEVDAEFAVVEVATTVEHDGRGLRTLELVTEVRDGEGSAVATATSPVTVLPGEPAVVRQRLLLPTPALWGPDSPSLYTAAVVLRDGGTDVDDDAVSFGVRTLSLDPERGLRINGEPIKLRGACVHSDNGVLGAATIGRAEERRVQLLKEAGFNALRSAHNPMSRAMLDACDRYGVLVMDELTDVWTESKTDFDAALDFPQWWERDVEAMVAKDVNHPSVVFYSIGNEIPEVAKPHGAVWSRRLAEKVRALDGTRFVTNGINAMLAVIGEAKAAEEQAGINTMLTDMGAFMDELSASELVATRTAEAYDVLDAAGMNYMEARYQLDRTLFPRRVIVGAETFAGKIDRLWRLVLDHPHVIGDFTWTGWDYLGEAGVGRVAAADDPTAGQFGAPYPWLLAHVGDIDITGHRRPASYYREIVFGRRRDPYIAVLRPERHGRELSATPWAWSDTVGSWSWAGAEEKPVTVEVYSDADEVELLLDGTSLGTAKAGEANRFRAAFEVTYAPGELTAVSRTGGQETGRCSLRSATGPLALAAAADRPVVRADDTDLAHVTLTLEDADGVVALGVDREVTVTVEGPGVLQGFGSAAPATEESYLDDVHTTFDGRALAVVRPTGAGTITLTATAPGCPPVSLGIEAR
notes: pGEX-4T-1 N-terminal GST fusion in E. coli BL21 (DE3), GST removed by thrombin (purified enzyme); primer-encoded N-terminus MRRIPF
By Km is commonly meant the concentration of substrate that gives half-maximal velocity. For B1, the Km was determined as 920 µM.
